Experimental data published in article PMC7486785 (Proceedings of the National Academy of Sciences of the …, 2020).
Positions count from the first letter of the chain named. Names and notes keep the numbering of the source.

T1: Duck egg lysozyme (DEL), D65N + N103D double mutant of the DEL-II isoform (Anas platyrhynchos, DEL-II double mutant, strain)
T1 construct: duck egg lysozyme, DEL-II isoform, D65N + N103D double mutant; differs from HEL3X at 25 amino acids; source: Pichia pastoris, secreted, purified from culture supernatant (ion exchange)
T1 chain: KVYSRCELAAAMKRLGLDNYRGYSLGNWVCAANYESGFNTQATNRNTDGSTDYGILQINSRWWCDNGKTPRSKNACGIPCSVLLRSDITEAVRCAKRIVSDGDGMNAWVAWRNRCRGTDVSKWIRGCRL

T2: Duck egg lysozyme (DEL) (Anas platyrhynchos, DEL-II double mutant, strain)
T2 construct: duck egg lysozyme, DEL-II isoform, D65N + N103D double mutant; source: P. pastoris, secreted, purified (ion exchange)
T2 chain: T1 chain

B1: HyHEL10 (Hy10) Fab, WT founder (Fab, V domains shown)
VH: DVQLQESGPSLVKPSQTLSLTCSVTGDSITSDYWSWIRKFPGNRLEYMGYVSYSGSTYYNPSLKSRISITRDTSKNQYYLDLNSVTTEDTATYYCANWDGDYWGQGTLVTVSA
VL: DIVLTQSPATLSVTPGNSVSLSCRASQSIGNNLHWYQQKSHESPRLLIKYASQSISGIPSRFSGSGSGTDFTLSINSVETEDFGMYFCQQSNSWPYTFGGGTKLEIK
notes: heavy chain of Hy10 Fab; light chain of Hy10 Fab; also called Hy10WT; source: Expi293, transient (pCEP4), purified (Talon resin, gel filtration)
B2: Hy10 Fab I29F (Fab, V domains shown)
VH: B1 VH with I29F
VL: B1 VL
notes: as the heavy chain of Dm5 with the stated changes; as the light chain of Dm5; source: Expi293, transient (pCEP4), purified (Talon resin, gel filtration)
B3: Hy10 Fab Y53F/Y58F (Fab, V domains shown)
VH: B1 VH with Y53F, Y58F
VL: B1 VL
notes: as for B2
B4: Hy10 Fab Y33H (Fab, V domains shown)
VH: B1 VH with Y33H
VL: B1 VL
notes: as the heavy chain of Dm5 with the stated changes; as the light chain of Dm5; also called Hy10-Y33H; source: Expi293, transient (pCEP4), purified (Talon resin, gel filtration)
B5: Hy10 Fab S52T/Y53F/Y58F (Fab, V domains shown)
VH: B1 VH with S52T, Y53F, Y58F
VL: B1 VL
notes: as for B2
B6: Hy10 Fab S52T/Y58F (Fab, V domains shown)
VH: B1 VH with S52T, Y58F
VL: B1 VL
notes: as for B2
B7: Hy10 Fab Y53F/S56R (Fab, V domains shown)
VH: B1 VH with Y53F, S56R
VL: B1 VL
notes: as for B2
B8: Hy10 Fab I29F/S52T/Y58F (Fab, V domains shown)
VH: B1 VH with I29F, S52T, Y58F
VL: B1 VL
notes: as for B2
B9: Hy10 Fab S56R (Fab, V domains shown)
VH: B1 VH with S56R
VL: B1 VL
notes: as the heavy chain of Dm5 with the stated changes; as the light chain of Dm5; also called Hy10-S56R; source: Expi293, transient (pCEP4), purified (Talon resin, gel filtration)
B10: Hy10 Fab I29F/S52T/Y53F/Y58F (Fab, V domains shown)
VH: B1 VH with I29F, S52T, Y53F, Y58F
VL: B1 VL
notes: as for B2
B11: Hy10 Fab I29F/S52T (Fab, V domains shown)
VH: B1 VH with I29F, S52T
VL: B1 VL
notes: as for B2
B12: Hy10 Fab I29F/S52T/Y53F (Fab, V domains shown)
VH: B1 VH with I29F, S52T, Y53F
VL: B1 VL
notes: as for B2
B13: Hy10 Fab L4F/Y33H (Fab, V domains shown)
VH: B1 VH with L4F, Y33H
VL: B1 VL
notes: as for B2
B14: Hy10 Fab S31N (Fab, V domains shown)
VH: B1 VH with S31N
VL: B1 VL
notes: as for B2
B15: Hy10 Fab L4F (Fab, V domains shown)
VH: B1 VH with L4F
VL: B1 VL
notes: as for B2
B16: Hy10 Fab Y53F (Fab, V domains shown)
VH: B1 VH with Y53F
VL: B1 VL
notes: as for B2
B17: Hy10 Fab Y58F (Fab, V domains shown)
VH: B1 VH with Y58F
VL: B1 VL
notes: as for B2
B18: Hy10 Fab S52T (Fab, V domains shown)
VH: B1 VH with S52T
VL: B1 VL
notes: as for B2
B19: Hy10 Fab S52T/Y53F (Fab, V domains shown)
VH: B1 VH with S52T, Y53F
VL: B1 VL
notes: as for B2
B20: Hy10 Fab (Fab, V domains shown)
VH: B1 VH
VL: B1 VL
notes: Hy10 Fab heavy chain; Hy10 Fab light chain; Biotinylated only for BLI, not for the crystals; also called HyHEL10; WT founder antibody; source: Expi293, transient, purified (Talon, gel filtration)

Target: T1, Duck egg lysozyme (DEL), D65N + N103D …
Assay: BLI; BLItz (ForteBio); biotinylated Hy10 Fab variant immobilised on streptavidin biosensors (rehydrated in PBS with 0.1% wt/vol BSA); soluble monomeric lysozyme antigen as analyte at a range of concentrations; global fit, 1:1 Fab-lysozyme interaction
Settings: both partners purified

Ka	Kd	Molecule
2.49e+07 M⁻¹	40.1 nM	B1
6.37e+07 M⁻¹	15.7 nM	B2
1.13e+08 M⁻¹	8.85 nM	B3
1.68e+06 M⁻¹	594 nM	B4
1.99e+09 M⁻¹	0.502 nM	B5
3.8e+08 M⁻¹	2.62 nM	B6
3.73e+07 M⁻¹	26.8 nM	B7
5.92e+08 M⁻¹	1.69 nM	B8
4.41e+06 M⁻¹	227 nM	B9
7.51e+09 M⁻¹	0.133 nM	B10
1.73e+08 M⁻¹	5.79 nM	B11
6.1e+09 M⁻¹	0.164 nM	B12
5.8e+06 M⁻¹	172 nM	B13
9.6e+06 M⁻¹	104 nM	B14
3.25e+06 M⁻¹	308 nM	B15
1.2e+08 M⁻¹	8.35 nM	B16
9.35e+07 M⁻¹	10.7 nM	B17
2.98e+07 M⁻¹	33.5 nM	B18
2.81e+08 M⁻¹	3.56 nM	B19

target: VH substitutions L4F, S31N, Y33H, and S56N; assay: BLI; BLItz; biotinylated Fab loaded on streptavidin biosensors, lysozyme proteins in solution at a range of molar concentrations; PBS (sensors rehydrated in PBS with 0.1% BSA); global fit, 1:1 Fab-lysozyme interaction; affinities printed as 1/KD; settings: not given

fold decrease in affinity against Hy10	Molecule
3 to 39 fold	HEL^3X self-lysozyme (from UniProt P00698 19-147) (natural protein)

target: Duck egg lysozyme (DEL); assay: bio-layer interferometry; settings: parent: est. 2.5e7 M-1; read off a plot

Ka	Molecule
< 100000 M⁻¹	Hy10 Fab S52N

Target: T2, Duck egg lysozyme (DEL)
Assay: BLI; BLItz; biotinylated Fab loaded on streptavidin biosensors, lysozyme proteins in solution at a range of molar concentrations; PBS (sensors rehydrated in PBS with 0.1% BSA); global fit, 1:1 Fab-lysozyme interaction; affinities printed as 1/KD
Settings: both partners purified

Ka	Molecule
2.5e+07 M⁻¹	B20
